The values below come from publication PMC7875971, “Cavin1 intrinsically disordered domains are essential for fuzzy electrostatic interactions and caveola formation” (Nature Communications, 2021).

The data set deals with the molecule itself. Put plainly: fluorescence correlation spectroscopy (FCS); purified ubiquitin- and GFP-tagged proteins at 0.1 µM in 20 mM HepesKOH pH 7.6 with 150 mM NaCl, compared with 500 mM NaCl; diffusivity as read-out of self-association.

B1: His-ubiquitin- and GFP-tagged full-length Cavin1 (recombinant GFP-Cavin1) (natural protein, mouse, UniProt O54724 1-392, looked up)
chain: MEDVTLHIVERPYSGFPDASSEGPEPTQGEARATEEPSGTGSDELIKSDQVNGVLVLSLLDKIIGAVDQIQLTQAQLEERQAEMEGAVQSIQGELSKLGKAHATTSNTVSKLLEKVRKVSVNVKTVRGSLERQAGQIKKLEVNEAELLRRRNFKVMIYQDEVKLPAKLSVSKSLKESEALPEKEGDELGEGERPEDDTAAIELSSDEAVEVEEVIEESRAERIKRSGLRRVDDFKKAFSKEKMEKTKVRTRENLEKTRLKTKENLEKTRHTLEKRMNKLGTRLVPVERREKLKTSRDKLRKSFTPDHVVYARSKTAVYKVPPFTFHVKKIREGEVEVLKATEMVEVGPEDDEVGAERGEATDLLRGSSPDVHTLLEITEESDAVLVDKSDSD
notes: Cavin1, mouse, residues 1-392; also called purified recombinant GFP-Cavin1; source: E. coli Rosetta 2 (DE3), purified (TALON, Superose 6 SEC); not shown: His6-ubiquitin, N-terminal, kept; GFP, C-terminal, kept
For B1, the binding result is listed as “binds”.
